The target in series [1] is RhlR:mBTL;PqsE (Pseudomonas aeruginosa (PA14?);Pseudomonas aeruginosa (PA14?)) (UniProt P54292+A0A0H2Z6F6). Description: EMSA. Particulars: […] (17 of 20 uL): 200 mM KCl, 50 mM Tris-HCl pH 7.5, 250 ug/mL BSA, 50 mM NaCl, 5 nM EDTA, 5 uM MgCl2, 5 uM DTT ([…], RT 15 min. For orientation: A gel shift assay detects complexes by their altered migration in electrophoresis.
Series [2] has as its target T1, RhlR:mBTL (Pseudomonas aeruginosa (PA14?)) (UniProt P54292).
T1 sequence: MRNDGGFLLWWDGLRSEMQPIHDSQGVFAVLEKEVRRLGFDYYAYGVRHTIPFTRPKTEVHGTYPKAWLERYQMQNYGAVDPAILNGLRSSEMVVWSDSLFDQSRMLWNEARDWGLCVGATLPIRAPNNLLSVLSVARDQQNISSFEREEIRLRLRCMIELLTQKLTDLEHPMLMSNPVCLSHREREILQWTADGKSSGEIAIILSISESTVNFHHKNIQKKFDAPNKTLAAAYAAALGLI
Description: EMSA. Particulars: […] (17 of 20 uL): 200 mM KCl, 50 mM Tris-HCl pH 7.5, 250 ug/mL BSA, 50 mM NaCl, 5 nM EDTA, 5 uM MgCl2, 5 uM DTT ([…], RT 15 min.

Regarding “GGGGCTTGTGTGGGTCTTGCAGATCGGCCTGCGCAAACGATTGGCGTCCGTGTTCACGCGTAGCCGATGAACACTTTTTAGCCAATTCGAAAGCTAACGGTAACTGCCAGATTTCACAGGACGGGCGGTCGCCTGCGCATAAGCCCCTGCCCGCCCGCGATAAGGCGTGCCAGAGCGGCCGGCGGGGAACAGCGAGGGGTTGGCGGAAAAGGCATGAAAA (double strand) [rhlA promoter fragment]”, the binding entry in series [1] and in series [2] was “binds” each time. As to “TATGGCGTGTCGGGAGAGATCCGCAGTCCTTGGCGGCAGGCGATGCGCAGGCAGGAAGGACGCATCGTTCAGCCAATCTACGCCGTCGACCGGGCGCGACCACTGCTAGAGTTCGCAGGAGGGCTACAGGGGTGTCCTGGCACTGGCGATGCATGGCCCGGTGCCGGTCTATGGCAGCCGCCTGCCGGCCCACTCGTTCGATTGTTACGCTGTCTGTAAT (double strand) [lecB promoter fragment]”, in series [1], the binding entry is “binds”. Regarding “TGGATGGTCATGTCTGCCCGCGAGAGGGGCTGGATATCGTGTTGACGTTCAAGAAGGTGCATTGCCCTTTCATCCGTGAGAGAGAGTCGGGAGCCGGCGACACTAGGAGTCGGGCCGGGCGCGGACATTGATCCATGACAGGTGGGTATCTTCCCCTGCCAATTCTGGTAGGTGGGGTGCAGGTGTTCGCGCGGAAAAGTCGAACCCGCGCCTACCCCAG (double strand) [hcnA promoter fragment]”, in series [1], the binding result is given as “binds”.

(Values after article PMC10732425.)
